Experimental data taken from PMC12744750 (Plant Communications, 2025).

Tests used:
[1] = Solubility during Cu(I) titration; type: physicochemical; settings: strictly anaerobic conditions
Description: All Cu(I) titration experiments were carried out in an anaerobic chamber (Belle Technology) using metal-free CHELEX-treated, degassed buffers. For titration experiments with Cu(I), aqueous CuSO4 stock was quantified in advance by ICP–MS and diluted to working concentrations. The reductant NH2OH was included at a final concentration of 1 mM to maintain Cu(I) in its reduced state. Proteins were diluted in buffer to the final concentration specified in each titration in air-tight quartz cuvettes (Helma), and after addition of probe to the concentration specified, titrated with CuSO4. After each addition, solutions were thoroughly mixed and absorbance spectra recorded using a Lambda 35 UV/Vis spectrophotometer (PerkinElmer). Titration isotherm data were fitted using simulated affinity curves with DynaFit ([Kuzmič, 2009]).

ETR1^306-738 = biological target: T1, ETR1^306-738 (Arabidopsis thaliana, UniProt P49333); assay: Microscale thermophoresis, PLS binding to ETR1 lacking the transmembrane domain; settings: MST, as full-length; ETR1^306-738 lacking N-terminal transmembrane domain; listed as PLS
T1 construct: made in house
T1 sequence (P49333 306-738): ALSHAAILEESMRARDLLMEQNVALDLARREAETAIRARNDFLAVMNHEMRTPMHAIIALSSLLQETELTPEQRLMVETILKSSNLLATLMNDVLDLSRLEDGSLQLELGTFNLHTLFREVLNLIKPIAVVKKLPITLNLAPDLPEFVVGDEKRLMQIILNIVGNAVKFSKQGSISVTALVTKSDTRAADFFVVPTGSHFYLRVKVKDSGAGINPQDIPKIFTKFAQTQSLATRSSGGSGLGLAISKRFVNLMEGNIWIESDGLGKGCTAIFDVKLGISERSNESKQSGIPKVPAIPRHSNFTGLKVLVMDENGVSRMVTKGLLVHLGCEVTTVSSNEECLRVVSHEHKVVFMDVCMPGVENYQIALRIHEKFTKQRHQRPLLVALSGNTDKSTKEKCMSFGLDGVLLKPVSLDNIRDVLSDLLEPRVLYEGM
Description: Fluorescently labeled ETR1 truncation mutants ([Milić et al., 2018]) were added to a dilution series of synthetic PLS in 50 mM HEPES, 150 mM NaCl, and 0.015% (w/v) FosCholine 16 (pH 7.6) or 50 mM Tris, 300 mM NaCl, and 0.015% (w/v) FosCholine 16 (pH 7.6). Dissociation constants were calculated using GraphPad Prism 5.
Full-length ETR1 and its truncation mutants were purified and labeled as described previously ([Milić et al., 2018]). Synthetic PLS (94 μM) was diluted serially in 50 mM Tris and 300 mM NaCl (pH 7.6). Fluorescently labeled receptor was added at a final concentration of 50 nM. Thermophoretic behavior was measured in premium capillaries at 50% LED and 50% microscale thermophoresis power. In case of a binding event, data were fitted using GraphPad Prism 5.

[2] = Anaerobic Cu(I) titration monitored by UV-vis and fluorescence spectra; type: binding; settings: 19.8 μM synthetic PLS, titration with CuCl; features at 242 nm and 306 nm
Description: Freeze-dried synthetic PLS peptide (Cambridge Research Biochemicals) was dissolved in DMSO. An aliquot was added to aqueous buffer (10 mM HEPES [pH 7], 20 mM NaCl, 80 mM KCl), and absorbance was recorded at 280 nm. PLS concentration was estimated from the absorbance and the ProtParam estimated extinction coefficient of 2980 M^−1 cm^−1. Concurrently, a sample was submitted for quantitative amino acid analysis (Abingdon Health Laboratory Services). From this analysis, a conversion factor of 2.27 was generated, which was applied to the concentrations determined by A280 nm.
All Cu(I) titration experiments were carried out in an anaerobic chamber (Belle Technology) using metal-free CHELEX-treated, degassed buffers. […] The reductant NH2OH was included at a final concentration of 1 mM to maintain Cu(I) in its reduced state. […] After each addition, solutions were thoroughly mixed and absorbance spectra recorded using a Lambda 35 UV/Vis spectrophotometer (PerkinElmer). Titration isotherm data were fitted using simulated affinity curves with DynaFit ([Kuzmič, 2009]).

Substance: PLS(FL): full-length 36-amino-acid PLS peptide from Arabidopsis (MKPRLCFNFRRRSISPCYISISYLLVAKLFKLFKIH)
- solubility [1]: problems with PLS solubility
- binding (dissociation constant) (ETR1^306-738): no binding was detected
- Cu(I)-dependent change of UV-vis and fluorescence spectra [2]: consistent with complex formation
